Measurements: patent US20250353907A1 (SHANGHAI SIMNOVA BIOTECHNOLOGY, published 2025)

Target: T1, recombinant human CD19-His (human, UniProt P15391 20-291, limits assumed)
T1 construct: This is the analyte in SPR; also called human CD19 protein; CD19 antigen protein; not shown: His tag
T1 sequence (looked up): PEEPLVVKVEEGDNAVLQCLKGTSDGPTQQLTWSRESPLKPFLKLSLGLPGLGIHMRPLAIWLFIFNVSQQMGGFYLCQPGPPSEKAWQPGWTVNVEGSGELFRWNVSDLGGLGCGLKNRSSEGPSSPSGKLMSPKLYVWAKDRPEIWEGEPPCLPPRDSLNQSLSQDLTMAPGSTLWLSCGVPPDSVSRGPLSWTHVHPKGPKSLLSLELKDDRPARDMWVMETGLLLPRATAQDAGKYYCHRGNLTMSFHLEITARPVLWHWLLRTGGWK
Test: SPR (Biacore), CD19-His as analyte, 1:1 Langmuir model
Procedure: The anti-human CD19 antibody was captured using a Protein A chip (GE Healthcare; 29-127-558).
The sample and running buffer was HBS-EP+ (10 mM HEPES, 150 mM NaCl, 3 mM EDTA, 0.05% surfactant P20) (GE Healthcare; BR-1006-69). The flow cell was set at 25° C. The sample block was set at 16° C. Both were pretreated with the running buffer. In each cycle, first, the antibody to be tested was captured using the Protein A chip, and then a single concentration of CD19 antigen protein was injected. The association and dissociation processes of the antibody with the antigen protein were recorded, and finally, the chip was regenerated using Glycine pH 1.5 (GE Healthcare; BR-1003-54). The association was determined by injecting different concentrations of recombinant human CD19-His in the solution and maintaining for 240 s, wherein the flow rate was 30 μL/min, and the protein was diluted in a 1:1 dilution ratio from 200 nM (see detailed results for actual concentrations tested) to obtain 5 concentrations in total. The dissociation phase was monitored for up to 600 s and triggered by switching from the sample solution to the running buffer. The surface was regenerated by washing with 10 mM glycine solution (pH 1.5) at a flow rate of 30 μL/min for 30 s. The difference in bulk refractive index was corrected by subtracting the responses obtained from the […]. Blank injections were also subtracted (=double reference). The Langmuir 1:1 model was used to calculate the apparent KD and other kinetic parameters.

Kd: 0.0195 nM
koff: 1.8e-06 s⁻¹
kon: 92400 M⁻¹ s⁻¹
B1: hFMC63 (humanized FMC63, hFMC63-VH1 + hFMC63-VL1) (antibody, V domains shown)
VH: EVTLKESGPVLVKPTETLTLTCTVSGFSLSDYGVSWIRQPPGKALEWLAVIWGSETTYYNSALKSRLTISKDTSKSQVVLTMTNMDPVDTATYYCAKHYYYGGSYAMDYWGQGTTVTVSS
VL: DIQMTQSPSSLSASVGDRVTITCRASQDISKYLNWYQQKPGGAVKLLIYHTSRLHSGVPSRFSGSGSGTDYTLTISSLQPEDFATYYCQQGNTLPYTFGGGTKVEIK
